Source: paper PMC3034952 (Enzyme Research, 2011)

Key:
Experiment in all cases: SEC; purified recombinant AtPDC E1 on a Superose 12 column in 50 mM TES-NaOH, pH 7.4, 50 mM NaCl, 0.1 mM TPP, 0.2 mM MgCl2; fractions analysed by SDS-PAGE and immunoblotting
Conditions in all cases: both partners purified
[1] = target: T1, AtPDC E1α S292D mutant, H6-tagged (Arabidopsis thaliana, UniProt P52901 18-389, S292D)
T1 sequence (looked up): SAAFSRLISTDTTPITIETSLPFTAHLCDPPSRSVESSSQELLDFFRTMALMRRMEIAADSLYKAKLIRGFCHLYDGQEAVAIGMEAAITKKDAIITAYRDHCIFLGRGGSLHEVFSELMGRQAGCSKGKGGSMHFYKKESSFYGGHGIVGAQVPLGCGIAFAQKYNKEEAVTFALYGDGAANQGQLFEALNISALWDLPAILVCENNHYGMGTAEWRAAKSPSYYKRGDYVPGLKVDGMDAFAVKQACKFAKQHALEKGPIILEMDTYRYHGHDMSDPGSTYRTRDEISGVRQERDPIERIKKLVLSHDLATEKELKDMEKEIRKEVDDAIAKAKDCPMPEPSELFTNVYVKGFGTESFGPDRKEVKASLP

[2] = target: T2, AtPDC E1α S292A mutant, H6-tagged (Arabidopsis thaliana, UniProt P52901 18-389, S292A)
T2 sequence (looked up): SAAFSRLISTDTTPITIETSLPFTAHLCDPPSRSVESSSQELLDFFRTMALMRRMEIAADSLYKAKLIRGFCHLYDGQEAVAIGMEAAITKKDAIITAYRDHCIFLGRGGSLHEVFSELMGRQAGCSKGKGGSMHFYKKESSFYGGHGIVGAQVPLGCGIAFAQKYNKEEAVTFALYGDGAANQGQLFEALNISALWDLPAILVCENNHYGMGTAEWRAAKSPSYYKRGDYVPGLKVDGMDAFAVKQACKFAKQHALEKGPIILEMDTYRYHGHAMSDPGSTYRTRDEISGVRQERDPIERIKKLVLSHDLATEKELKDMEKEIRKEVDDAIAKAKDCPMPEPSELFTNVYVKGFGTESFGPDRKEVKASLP

[3] = target: T3, AtPDC E1α G297S mutant, H6-tagged (Arabidopsis thaliana, UniProt P52901 18-389, G297S)
T3 sequence (looked up): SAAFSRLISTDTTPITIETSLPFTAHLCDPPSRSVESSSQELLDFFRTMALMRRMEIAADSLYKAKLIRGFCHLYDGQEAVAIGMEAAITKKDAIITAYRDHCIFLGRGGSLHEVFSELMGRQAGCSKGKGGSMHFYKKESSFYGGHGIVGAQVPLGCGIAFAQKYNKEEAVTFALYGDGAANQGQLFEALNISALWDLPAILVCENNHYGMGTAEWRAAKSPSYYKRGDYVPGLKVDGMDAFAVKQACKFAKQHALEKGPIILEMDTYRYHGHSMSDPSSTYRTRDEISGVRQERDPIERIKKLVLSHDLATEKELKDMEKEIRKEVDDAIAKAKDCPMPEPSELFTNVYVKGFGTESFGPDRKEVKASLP

[4] = target: T4, AtPDC E1α S298A mutant, H6-tagged (Arabidopsis thaliana, UniProt P52901 18-389, S298A)
T4 sequence (looked up): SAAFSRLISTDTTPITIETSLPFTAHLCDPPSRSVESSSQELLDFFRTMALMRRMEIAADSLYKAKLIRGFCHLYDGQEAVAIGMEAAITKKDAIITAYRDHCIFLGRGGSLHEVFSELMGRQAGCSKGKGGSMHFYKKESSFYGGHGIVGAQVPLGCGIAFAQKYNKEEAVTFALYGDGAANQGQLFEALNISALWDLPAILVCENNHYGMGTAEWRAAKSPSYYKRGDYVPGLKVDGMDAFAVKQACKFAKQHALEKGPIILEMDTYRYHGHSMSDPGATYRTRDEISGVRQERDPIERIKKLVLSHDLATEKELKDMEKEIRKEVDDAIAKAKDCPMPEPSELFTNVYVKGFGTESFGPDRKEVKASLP

[5] = target: T5, AtPDC E1α G297D mutant, H6-tagged (Arabidopsis thaliana, UniProt P52901 18-389, G297D)
T5 sequence (looked up): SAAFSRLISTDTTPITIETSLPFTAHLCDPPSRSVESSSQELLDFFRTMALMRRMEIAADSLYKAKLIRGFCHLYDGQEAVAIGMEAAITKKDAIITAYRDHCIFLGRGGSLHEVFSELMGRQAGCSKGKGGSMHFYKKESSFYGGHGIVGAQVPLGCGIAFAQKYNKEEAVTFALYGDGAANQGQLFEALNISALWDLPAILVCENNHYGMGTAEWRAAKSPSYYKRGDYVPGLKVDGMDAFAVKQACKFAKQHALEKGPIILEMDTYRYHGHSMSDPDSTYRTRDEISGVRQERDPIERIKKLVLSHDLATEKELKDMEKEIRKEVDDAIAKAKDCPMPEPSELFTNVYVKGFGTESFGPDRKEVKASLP

Measured: binding result

B1: Arabidopsis thaliana mitochondrial pyruvate dehydrogenase E1β subunit (AtPDC E1β), FLAG-tagged (enzyme, UniProt Q38799 30-363, looked up)
chain: AAGAKEMTVRDALNSAIDEEMSADPKVFVMGEEVGQYQGAYKITKGLLEKYGPERVYDTPITEAGFTGIGVGAAYAGLKPVVEFMTFNFSMQAIDHIINSAAKSNYMSAGQINVPIVFRGPNGAAAGVGAQHSQCYAAWYASVPGLKVLAPYSAEDARGLLKAAIRDPDPVVFLENELLYGESFPISEEALDSSFCLPIGKAKIEREGKDVTIVTFSKMVGFALKAAEKLAEEGISAEVINLRSIRPLDRATINASVRKTSRLVTVEEGFPQHGVCAEICASVVEESFSYLDAPVERIAGADVPMPYAANLERLALPQIEDIVRASKRACYRSK
binds: all assays above
